Assay results from patent publication US20130230533A1 (Regeneron, published 2013).

Columns and labels:
[1] = biological target: T1, Monomeric monkey CD48-mmH (monkey); test: SPR (Biacore), antibody captured by anti-Fc, CD48 in solution, 25 C
T1 construct: Soluble monkey CD48 with a myc-myc-hexa-histidine C-terminal tag; the whole entry is the construct; also called mfCD48-mmH
T1 chain: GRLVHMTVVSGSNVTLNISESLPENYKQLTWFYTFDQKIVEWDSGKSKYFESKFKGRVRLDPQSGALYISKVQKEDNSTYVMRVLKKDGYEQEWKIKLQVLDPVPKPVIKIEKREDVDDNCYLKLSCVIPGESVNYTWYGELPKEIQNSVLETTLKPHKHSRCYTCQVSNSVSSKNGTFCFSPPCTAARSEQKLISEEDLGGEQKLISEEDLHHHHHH
Method: (§1) Measurements were conducted on a T100-2 BIACORE™ instrument (Biacore Life Sciences division of GE Healthcare, Piscataway, N.J.). Antibodies (either with mouse Fc [designated “H2M” or “H3M”] or human IgG4 Fc [designated “H4H”]) were captured through an anti-Fc chip surface, and CD48 was flowed over the surface either in a monomeric (soluble CD48 expressed with a myc-myc-hexa-histidine C-terminal tag [mmH]) or dimeric (soluble CD48 expressed with a C-terminal Fc fusion [mFc]) format.
(§2) The soluble CD48 was applied to the flow cell in separate injections at different concentrations, and kinetic association (kₐ) and dissociation (kd) rate constants were determined by fits to the kinetic binding data using Biacore software. Binding dissociation equilibrium constants and dissociation half-times were calculated from the kinetic rate constants as: KD=kd/kₐ; t_{1/2}=(ln 2/kd) (units: ka=M⁻¹*s⁻¹; kd=s⁻¹; KD=M; T½=min) (Tables 3-6).

Dimeric monkey CD48-mFc [2] = biological target: T2, Dimeric monkey CD48-mFc (monkey); test: as above
T2 construct: Soluble monkey CD48 with a C-terminal Fc fusion [mFc]; the whole entry is the construct
T2 chain: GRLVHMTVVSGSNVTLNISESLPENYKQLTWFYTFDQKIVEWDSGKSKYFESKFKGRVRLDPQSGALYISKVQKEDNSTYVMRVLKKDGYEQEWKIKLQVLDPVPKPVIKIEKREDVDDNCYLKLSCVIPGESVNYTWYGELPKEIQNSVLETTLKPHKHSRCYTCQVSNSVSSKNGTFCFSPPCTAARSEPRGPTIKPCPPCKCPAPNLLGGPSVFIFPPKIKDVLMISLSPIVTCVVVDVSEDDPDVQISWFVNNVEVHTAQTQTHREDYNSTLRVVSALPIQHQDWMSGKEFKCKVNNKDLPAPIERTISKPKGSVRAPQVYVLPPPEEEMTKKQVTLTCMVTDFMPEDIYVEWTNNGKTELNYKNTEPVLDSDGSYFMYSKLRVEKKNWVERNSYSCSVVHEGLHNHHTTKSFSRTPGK
Method: as §1, §2

Monomeric human CD48-mmH = biological target: T3, Monomeric human CD48-mmH (human); test: SPR (Biacore), antibody captured by anti-Fc, CD48 in solution, 37 C
T3 chain: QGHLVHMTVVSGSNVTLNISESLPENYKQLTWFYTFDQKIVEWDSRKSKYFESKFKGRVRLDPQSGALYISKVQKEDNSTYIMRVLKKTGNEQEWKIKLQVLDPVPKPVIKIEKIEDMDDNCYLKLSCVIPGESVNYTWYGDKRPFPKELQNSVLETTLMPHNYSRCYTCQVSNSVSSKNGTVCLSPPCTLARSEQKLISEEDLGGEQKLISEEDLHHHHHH
Procedure, shortened: (§3)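 Antibodies (mouse or human IgG4 Fc) captured on anti-Fc surface; soluble CD48, monomeric (myc-myc-His tag) or dimeric (Fc fusion), injected at several concentrations. ka and kd from kinetic fits; KD=kd/ka, t½=ln2/kd.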

Dimeric human CD48-mFc = biological target: T4, Dimeric human CD48-mFc (human); test: as above
T4 construct: the whole entry is the construct; also called hCD48-mFc
T4 chain: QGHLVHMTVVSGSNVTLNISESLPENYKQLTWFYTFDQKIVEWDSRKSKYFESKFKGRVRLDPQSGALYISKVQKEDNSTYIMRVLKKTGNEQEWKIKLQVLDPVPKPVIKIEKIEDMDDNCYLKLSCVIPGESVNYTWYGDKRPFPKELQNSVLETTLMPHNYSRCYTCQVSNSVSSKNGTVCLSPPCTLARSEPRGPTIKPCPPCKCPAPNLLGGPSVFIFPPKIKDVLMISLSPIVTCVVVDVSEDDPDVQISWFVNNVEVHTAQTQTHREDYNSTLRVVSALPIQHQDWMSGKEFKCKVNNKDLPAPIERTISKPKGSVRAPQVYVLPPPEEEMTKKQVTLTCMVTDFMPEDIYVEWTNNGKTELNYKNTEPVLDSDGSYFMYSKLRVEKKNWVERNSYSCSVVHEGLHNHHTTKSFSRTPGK
Procedure, shortened: as §3

[3] = biological target: T1, Monomeric monkey CD48-mmH; test: as above
Procedure, shortened: as §3

Dimeric monkey CD48-mFc [4] = biological target: T2, Dimeric monkey CD48-mFc; test: as above
Procedure, shortened: as §3

[5] = biological target: T5, biotinylated dimeric human CD48 protein expressed as a fusion with mouse IgG2a Fc (human, biotinylated); test: competition ELISA; blocks bio-hCD48-mFc binding to coated h2B4-mFc
T5 construct: also called bio-hCD48-mFc; Dimeric human CD48-mFc
T5 chain: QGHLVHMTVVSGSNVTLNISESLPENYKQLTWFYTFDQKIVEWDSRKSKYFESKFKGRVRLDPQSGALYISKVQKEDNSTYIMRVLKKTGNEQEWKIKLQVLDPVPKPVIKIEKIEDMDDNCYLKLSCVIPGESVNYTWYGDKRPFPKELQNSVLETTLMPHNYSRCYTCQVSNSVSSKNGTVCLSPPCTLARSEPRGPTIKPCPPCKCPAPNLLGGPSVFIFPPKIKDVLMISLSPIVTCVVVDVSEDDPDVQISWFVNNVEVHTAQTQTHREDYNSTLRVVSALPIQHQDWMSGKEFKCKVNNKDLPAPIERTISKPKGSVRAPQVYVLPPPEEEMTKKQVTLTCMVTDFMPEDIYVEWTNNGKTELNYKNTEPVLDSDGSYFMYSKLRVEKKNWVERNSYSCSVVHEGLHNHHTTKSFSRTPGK
Method: (§4) The ability of human anti-CD48 monoclonal antibodies to block human CD48 and monkey CD48 binding to the human cognate ligand, human 2B4, was measured using a competition sandwich ELISA (Table 8). Constant amounts of biotinylated dimeric human CD48 protein expressed as a fusion with mouse IgG2a Fc (“bio-hCD48-mFc” [SEQ ID NO: 387]) or monomeric monkey CD48 expressed with a tag consisting of 2 myc and one 6-His epitopes (“mfCD48-mmH” [SEQ ID NO: 386]) were separately titrated with varying amounts of antibodies. These antibody-protein complexes were incubated (1 hr, 25° C.) before being transferred to microtiter plates coated with a dimeric construct expressing the human 2B4 receptor fused to a either human IgG1 (h2B4-hFc [R&D Systems, Inc., Minneapolis, Minn., Cat. No. 1039-2B]) or mouse IgG2a Fc (h2B4-mFc [SEQ ID NO: 389). After a 1 hr at 25° C. the wells were washed and bound human CD48 was detected with streptavidin conjugated with horse-radish peroxidase (HRP), and monkey CD48 was detected with an HRP conjugated anti-myc polyclonal antibody. The ELISA was developed with a TMB solution to produce a colorimetric reaction and quenched with sulfuric acid before reading absorbance at 450 nm on a Victor X5 plate reader. Sigmoidal dose response curves were fit to the data using Prism™ software. […] (Tables 8 and 9, NB=no binding observed)

[6] = biological target: T6, monomeric monkey CD48 expressed with a tag consisting of 2 myc and one 6-His epitopes (monkey); test: competition ELISA; blocks mfCD48-mmH binding to coated h2B4-mFc
T6 construct: also called mfCD48-mmH; Monomeric monkey CD48-mmH
T6 chain: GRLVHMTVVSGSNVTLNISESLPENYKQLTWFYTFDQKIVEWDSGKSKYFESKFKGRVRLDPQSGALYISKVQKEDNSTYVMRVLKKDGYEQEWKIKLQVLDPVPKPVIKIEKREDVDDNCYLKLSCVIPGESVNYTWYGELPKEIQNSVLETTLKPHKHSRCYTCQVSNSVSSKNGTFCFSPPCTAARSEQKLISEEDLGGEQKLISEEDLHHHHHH
Method: as §4

B1: H4H1789Pa (antibody, V domains shown)
VH: EVQLLESGGGLVHPGGSLRLSCAASGFTFGGYAMSWVRQAPGKGLEWVSLISGSGGSTYYADSVKGRFTIFRDNSKNTLYLQMISLRAEDSAVYYCAKYSNYDYFDPWGQGTLVTVSS
VL: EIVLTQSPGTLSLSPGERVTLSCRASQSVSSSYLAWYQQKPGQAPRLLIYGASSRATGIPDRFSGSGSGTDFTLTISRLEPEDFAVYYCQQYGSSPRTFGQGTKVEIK
notes: Human IgG4 Fc (H4H)
In the case of B1, the Kd [1] is reported as 3.31 nM, the T½ [1] is reported as 8 min and the koff [1] is reported as 0.00138 s⁻¹. It also gave a kon [1] of 416000 M⁻¹ s⁻¹, a Kd (Dimeric monkey CD48-mFc [2]) of 0.423 nM and a T½ (Dimeric monkey CD48-mFc [2]) of 42 min. The koff (Dimeric monkey CD48-mFc [2]) was 0.000276 s⁻¹, the kon (Dimeric monkey CD48-mFc [2]) was 651000 M⁻¹ s⁻¹ and the Kd (Monomeric human CD48-mmH) was 8.97 nM. The T½ (Monomeric human CD48-mmH) was 6 min, the koff (Monomeric human CD48-mmH) was 0.00179 s⁻¹ and the kon (Monomeric human CD48-mmH) was 199000 M⁻¹ s⁻¹. The Kd (Dimeric human CD48-mFc) was 0.161 nM, the T½ (Dimeric human CD48-mFc) was 324 min and the koff (Dimeric human CD48-mFc) was 3.57e-05 s⁻¹. For the same binder, the kon (Dimeric human CD48-mFc) was 221000 M⁻¹ s⁻¹, the Kd [3] was 4.71 nM and the T½ [3] was 6 min. The koff [3] was 0.00206 s⁻¹, the kon [3] was 437000 M⁻¹ s⁻¹ and the Kd (Dimeric monkey CD48-mFc [4]) was 0.776 nM. For the same binder, the T½ (Dimeric monkey CD48-mFc [4]) was 15 min, the koff (Dimeric monkey CD48-mFc [4]) was 0.000768 s⁻¹ and the kon (Dimeric monkey CD48-mFc [4]) was 990000 M⁻¹ s⁻¹.

B2: H4H1713N (antibody, human IgG4, V domains shown)
VH: QVQLVQSGAEVKKPGASVKVSCKASGHTFTNYYIHWVRQAPGQGLEWMGITNPNDGNTRYAQKFQGRISMTWDTSTSTVFMELSSLKSEDTAVYYCAGLRYWFFDLWGRGTPVTVSS
VL: DIQMTQSPSSVSASVGDRVTITCRASQDISSWLAWYQQKPGKAPNLLIFAASSLQSGVPSRFSGSGSGTDFTLTISSLQPEDFGTYYCQQTDNFPRTFGQGTKVEIN
notes: Human IgG4 Fc (H4H) form of 1713N
Work on B2 yielded an IC50 [5] of 0.018 nM and an IC50 [6] of 0.0034 nM.

B3: H4H1770P (antibody, human IgG4, V domains shown)
VH: QVQLVQSGAEVKKPGAAVKVSCKASGYTFTAYGISWVRQAPGQGLEWMGWISAYDGDTNNAQKFQGRVTMTTDTSSSTAYMELRSLGSDDTAVYYCARDRYSSSSGYFDYWGQGTLVTVSS
VL: DIQMTQSPSSVSASVGDRVTITCRASQDISSWLAWSQQKPGKAPKALIYAASSLQSGVPSRFSGSGSGTDFTLTISSLQPEDFATYYCQQANSFPYTFGQGTKLEIK
notes: Human IgG4 Fc (H4H)
Binder B3 has an IC50 [5] of 0.02 nM and an IC50 [6] of 0.022 nM.
